Consider three molecules from US20230048046A1 (CUGENE, published 2023).

The chains are these.
B3: huIL-15Rβ-6His (receptor, human, UniProt P14784 27-239, looked up)
chain: AVNGTSQFTCFYNSRANISCVWSQDGALQDTSCQVHAWPDRRRWNQTCELLPVSQASWACNLILGAPDSQKLTTVDIVTLRVLCREGVRWRVMAIQDFKPFENLRLMAPISLQVVHVETHRCNISWEISQASHYFERHLEFEARTLSPGHTWEEAPLLTLKQKQEWICLETLTPDTQYEFQVRVKPLQGEFTTWSPWSQPLAFRTKPAALGKD
notes: Coated on the ELISA plate; also called IL-15Rβ subunit; huIL-15R/3-6His (so in the source); not shown: 6His tag per the name

Assay [1] deals with B3. As to the kind of experiment: ELISA EC50 against P-0153 (IL-15 wild type). The procedure: (§1) The binding activity was tested in ELISA assay. Briefly, Nunc Maxisorp (ThermoFisher) plates were coated overnight at 4° C. with huIL-15R/3-6His at 1 μg/well (100 μl/well) in bicarbonate buffer pH 9.4 (ThermoFisher). After washing 3 times with PBS/0.05% Tween20, plates were incubated with SuperBlock (300 μl/well) at room temperature for 2 hrs. to block nonspecific binding. After washing, IL-15 compounds each at 3-fold serial dilutions with blocking buffer were added to the plates (100 μl/well) and incubated at room temperature for 1 hr. After washing, the Fc fusions were detected by 1 hr. incubation at room temperature with a goat anti-human IgG Fc secondary antibody conjugated with horseradish peroxidase (HRP) at 1:5000 dilution in blocking buffer (ThermoFisher) (100 μl/well). After washing, TMB substrate (ThermoFisher) was added (100 ul/well). Plates were sealed and incubated 5-20 min at room temperature in dark. Reaction was stopped by adding 2N sulfuric acid (Ricca Chemical) (50 uL/well) and absorbance was read at 450-590 nm.
(§2) The IL-15 variants have amino acid deletion, insertion or point mutations introduced in the human IL-15 peptide. […]
In general terms: ELISA stands for enzyme-linked immunosorbent assay.

Assay [2] concerns the target B3. Description: ELISA, huIL-15Rβ-6His coated, anti-human IgG Fc-HRP detection. The procedure: as §1, §2
Assay [3] addresses P-0313, C-terminal bivalent IL-15 S58D/IL-15Rα (non-covalent) Fc fusion protein (human, UniProt Q13261 31-107). Description: ELISA.

As usually defined, the EC50 is the concentration at which the effect is half-maximal. The low end stands for an effect from little substance, the high end for a need for much substance.

B1: P-0176, IL-15i1 (GS insertion after N95) in IL-15/IL-15Rα heterodimeric Fc fusion format (Fc fusion)
chain 1: DKTHTCPPCPAPEAAGAPSVFLFPPKPKDTLMISRTPEVTCVVVDVSHEDPEVKFNWYVDGVEVHNAKTKPREEQYNSTYRVVSVLTVLHQDWLNGKEYKCKVSNKALPAPIEKTISKAKGQPREPQVYTLPPCREEMTKNQVSLSCAVKGFYPSDIAVEWESNGQPENNYKTTPPVLDSDGSFFLVSKLTVDKSRWQQGNVFSCSVMHEALHNHYTQKSLSLSPGEPKSSDKTHTSPPSPNWVNVISDLKKIEDLIQSMHIDATLYTESDVHPSCKVTAMKCFLLELQVISLESGDASIHDTVENLIILANNSLSSNGNVTESGCKECEELEEKNGSIKEFLQSFVHIVQMFINTS
chain 2: DKTHTCPPCPAPEAAGAPSVFLFPPKPKDTLMISRTPEVTCVVVDVSHEDPEVKFNWYVDGVEVHNAKTKPREEQYNSTYRVVSVLTVLHQDWLNGKEYKCKVSNKALPAPIEKTISKAKGQPREPQVCTLPPSREEMTKNQVSLWCLVKGFYPSDIAVEWESNGQPENNYKTTPPVLDSDGSFFLYSKLTVDKSRWQQGNVFSCSVMHEALHNHYTQKSLSLSPGEPKSSDKTHTSPPSPITCPPPMSVEHADIWVKSYSLYSRERYICNSGFKRKAGTSSLTECVLNKATNVAHWTTPSLKCIRDPALVHQRPAPP
For B1, the Fold change with huIL-15Rβ-6His [1] worked out at 16 fold. In the assay with huIL-15Rβ-6His [2], this molecule returned an EC50 of 10.2 nM.

B2: P-0177, IL-15i2 (GGSGG insertion after N95) in IL-15/IL-15Rα heterodimeric Fc fusion format (Fc fusion)
chain 1: DKTHTCPPCPAPEAAGAPSVFLFPPKPKDTLMISRTPEVTCVVVDVSHEDPEVKFNWYVDGVEVHNAKTKPREEQYNSTYRVVSVLTVLHQDWLNGKEYKCKVSNKALPAPIEKTISKAKGQPREPQVYTLPPCREEMTKNQVSLSCAVKGFYPSDIAVEWESNGQPENNYKTTPPVLDSDGSFFLVSKLTVDKSRWQQGNVFSCSVMHEALHNHYTQKSLSLSPGEPKSSDKTHTSPPSPNWVNVISDLKKIEDLIQSMHIDATLYTESDVHPSCKVTAMKCFLLELQVISLESGDASIHDTVENLIILANNSLSSNGNVTESGCKECEELEEKNGGSGGIKEFLQSFVHIVQMFINTS
chain 2: DKTHTCPPCPAPEAAGAPSVFLFPPKPKDTLMISRTPEVTCVVVDVSHEDPEVKFNWYVDGVEVHNAKTKPREEQYNSTYRVVSVLTVLHQDWLNGKEYKCKVSNKALPAPIEKTISKAKGQPREPQVCTLPPSREEMTKNQVSLWCLVKGFYPSDIAVEWESNGQPENNYKTTPPVLDSDGSFFLYSKLTVDKSRWQQGNVFSCSVMHEALHNHYTQKSLSLSPGEPKSSDKTHTSPPSPITCPPPMSVEHADIWVKSYSLYSRERYICNSGFKRKAGTSSLTECVLNKATNVAHWTTPSLKCIRDPALVHQRPAPP
In the assay with huIL-15Rβ-6His [1], B2 came in with a Fold change of 59 fold. In the assay with huIL-15Rβ-6His [2], this molecule showed an EC50 of 38 nM.

B3: the binding result in assay [3] is reported as “binds”.
